Patent US20240076384A1

Columns and labels:
[1] = target: soluble mouse Fc-human NKG2D dimer (human) (UniProt P26718); assay: SPR, 37 C, mFc-hNKG2D captured, TriNKET as analyte, kinetic fit, experiment 1
[2] = target: soluble mouse Fc-human NKG2D dimer (human) (UniProt P26718); assay: SPR, 37 C, kinetic fit, average of three experiments for TriNKET A (cell split over r19 and r20, columns shifted)
[3] = target: soluble mouse Fc-human NKG2D dimer (human) (UniProt P26718); assay: SPR, 37 C, mFc-hNKG2D captured, TriNKET as analyte, steady state affinity fit, experiment 3
[4] = target: soluble mouse Fc-human NKG2D dimer (human) (UniProt P26718); assay: SPR, 37 C, mFc-hNKG2D captured, TriNKET as analyte, experiment 2
[5] = target: soluble mouse Fc-human NKG2D dimer (human) (UniProt P26718); assay: SPR, 37 C, mFc-hNKG2D captured, TriNKET as analyte, steady state affinity fit, experiment 2
[6] = target: soluble mouse Fc-human NKG2D dimer (human) (UniProt P26718); assay: SPR, 37 C, mFc-hNKG2D captured, TriNKET as analyte, steady state affinity fit, experiment 1
[7] = target: soluble mouse Fc-human NKG2D dimer (human) (UniProt P26718); assay: SPR, 37 C, mFc-hNKG2D captured, TriNKET as analyte, experiment 3
[8] = target: soluble mouse Fc-human NKG2D dimer (human) (UniProt P26718); assay: SPR, 37 C, mFc-hNKG2D captured, TriNKET as analyte, experiment 1
[9] = target: soluble mouse Fc-human NKG2D dimer (human) (UniProt P26718); assay: SPR, 37 C, mFc-hNKG2D captured, TriNKET as analyte, kinetic fit, experiment 3
[10] = target: soluble mouse Fc-human NKG2D dimer (human) (UniProt P26718); assay: SPR, 37 C, steady state affinity fit, average of three experiments for TriNKET A (cell split over r19 and r20, columns shifted)
[11] = target: soluble mouse Fc-human NKG2D dimer (human) (UniProt P26718); assay: SPR, 37 C, average of three experiments for TriNKET A (columns shifted)
[12] = target: soluble mouse Fc-human NKG2D dimer (human) (UniProt P26718); assay: SPR, 37 C, mFc-hNKG2D captured, TriNKET as analyte, kinetic fit, experiment 2

Sequence of soluble mouse Fc-human NKG2D dimer (human) (P26718 78-216): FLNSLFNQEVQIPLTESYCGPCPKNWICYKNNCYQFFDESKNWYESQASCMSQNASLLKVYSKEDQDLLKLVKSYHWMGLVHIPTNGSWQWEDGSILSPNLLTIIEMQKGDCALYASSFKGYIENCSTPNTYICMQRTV

Kd [1]: 605 nM | koff [1]: 0.116 s⁻¹ | kon [1]: 191000 M⁻¹ s⁻¹ | koff [2]: 0.112 s⁻¹ | kon [2]: 196000 M⁻¹ s⁻¹ | Kd [3]: 580 nM | Stoichiometry [4]: 0.88 | Kd [5]: 420 nM | Kd [6]: 462 nM | Stoichiometry [7]: 1.12 | Stoichiometry [8]: 1.01 | Kd [9]: 595 nM | koff [9]: 0.115 s⁻¹ | kon [9]: 193000 M⁻¹ s⁻¹ | Kd [10]: 487 nM | Stoichiometry [11]: 1.01 | Kd [12]: 523 nM | koff [12]: 0.106 s⁻¹ | kon [12]: 203000 M⁻¹ s⁻¹
B1: TriNKET A (a TriNKET containing A49) (bispecific antibody, part only; not given: Tumour antigen arm, constant regions, Fc, V domains shown, not shown: another chain or arm of the molecule; a dimerising Fc or GST)
VH: EVQLVESGGGLVKPGGSLRLSCAASGFTFSSYSMNWVRQAPGKGLEWVSSISSSSSYIYYADSVKGRFTISRDNAKNSLYLQMNSLRAEDTAVYYCARGAPMGAAAGWFDPWGQGTLVTVSS
VL: DIQMTQSPSSVSASVGDRVTITCRASQGISSWLAWYQQKPGKAPKLLIYAASSLQSGVPSRFSGSGSGTDFTLTISSLQPEDFATYYCQQGVSFPRTFGGGTKVEIK
